# Measurements taken from paper PMC4159317.
# Marks after values point to notes of the source that are not given here.
# How the values were obtained:
# Glu107 [1] = experiment: other (circular dichroism); settings: 25 °C; 50 mM NaCl; none stated; 30 µM protein in 50 mM NaCl titrated with 0.05-0.1 M HCl or NaOH; transition between the more structured form (MSF) and the less structured form (LSF) of the double mutant
# Glu83 = experiment: NMR; settings: 25 °C, not stated for the titration samples, folded, more structured form (MSF), signals were lost above pH 6.4 because the population of the structured form is low there
# Glu68 = experiment: NMR; settings: 25 °C, not stated for the titration samples, folded, more structured form (MSF), signals were lost above pH 6.4 because the population of the structured form is low there
# Glu87 = experiment: NMR; settings: 25 °C, not stated for the titration samples, folded, more structured form (MSF), signals were lost above pH 6.4 because the population of the structured form is low there
# Glu105 = experiment: NMR; settings: 25 °C, not stated for the titration samples, folded, more structured form (MSF), signals were lost above pH 6.4 because the population of the structured form is low there
# Glu28 = experiment: NMR; settings: 25 °C, not stated for the titration samples, folded, more structured form (MSF), signals were lost above pH 6.4 because the population of the structured form is low there
# Glu107 [2] = experiment: NMR; settings: 25 °C, not stated for the titration samples, folded, more structured form (MSF), signals were lost above pH 6.4 because the population of the structured form is low there
# Glu104 = experiment: NMR; settings: 25 °C, not stated for the titration samples, folded, more structured form (MSF), signals were lost above pH 6.4 because the population of the structured form is low there
# Glu38 = experiment: NMR; settings: 25 °C, not stated for the titration samples, folded, more structured form (MSF), signals were lost above pH 6.4 because the population of the structured form is low there
# Glu63 = experiment: NMR; settings: 25 °C, not stated for the titration samples, folded, more structured form (MSF), signals were lost above pH 6.4 because the population of the structured form is low there
Substance,pKa (Glu107 [1]),pKa (Glu83),pKa (Glu68),pKa (Glu87),pKa (Glu105),pKa (Glu28),pKa (Glu107 [2]),pKa (Glu104),pKa (Glu38),pKa (Glu63)
"DraK histidine kinase, extracellular sensor domain (ESD), E83L/E105L double mutant (Streptomyces coelicolor A3(2); E83L;E105L)",8.1*,,,,,,,,,
"DraK histidine kinase, extracellular sensor domain (ESD), wild type (Streptomyces coelicolor A3(2))",,5.3,4.5,3.7,5.5,3.9,above 6.4,4.6,4.3,4.5
